The nanobody polyreactivity screen of Harvey et al. (2022)

Assay: yeast display, Sf9 membrane polyspecificity reagent, FACS + sequencing; frameworks hold sequencing errors
Method in brief: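 Nanobodies came from a synthetic yeast display library in Saccharomyces cerevisiae BJ5465, induced with galactose for 36–48 hours and stained for 1 hour at 4 °C with 10% biotinylated, detergent-solubilized Sf9 membrane reagent. Cells were enriched on streptavidin microbeads and then FACS-sorted, with low and high (top ~1%) gates set on anti-HA fluorescence for expression and streptavidin fluorescence for reagent binding. Each polyreactivity label reflects the gate a clone came from. Genes were amplified by colony PCR, sequenced by MiSeq 2 × 250 and filtered by CDR length.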

| Sequence | polyreactivity (PSR sort gate) |
| --- | --- |
| QVQLVESGGGLVHAGGSLRLSCAASGRTFRNNAMVWYRQAPGKEREWVAAITSGGSTNYADSVKGRFTISRDNAKNPVYLQMISLKPEDTGVYYCAKDFWYVTGGWSSGMDYWGQGTQVTVSS | low polyreactivity |
| QVQLVESGGGLVQAGGSLRLSCAASGFIFKYYAMGWYRQAPGKERELVASISSYGSSTYYADSVKGRFTSSRDSAKNTVYLQLNSVKPEDTAVYYCAAPYNFWNFFDLIYVWDGYDYWGQGTQVTVSS | low polyreactivity |
| QVQLVESGGGLVQAGGSLRLSCAASGYTFDLYAMGWYRQAPGKERELVADISSGGSTNYADSVKGRFTISRDNAKNTVYLQMNSLKPEDTAVYYCAVDADRSLFGQYYVSEYGGGYWGQGTQVTVSS | low polyreactivity |
| QFQLVESVGGLVQAGGSLRLSCAASGSTFVRNELGWYRQAPGKERELVAANSVDGSSTYYADSVKGRFTISRDNAKNTVYLQINSLKPEDTAVYYCNADWDYRDFYDITYDYWGQGTQVTVSS | low polyreactivity |
| QVQLVESGGGLVQAGGSLRLSCAASGRTFIANAMGWYRQAPGKERELVAVITLNGGSTYYADSVKGRFTISRDNAKSTVYLQMISLKPEDTAVYYCAAGRYYNLRATHGYWGQGTQVTVSS | low polyreactivity |
| QVQLVESGGGLVQAGGSLRLSCAASGITFDTYVMGWYRQAPGKERELVAAISNSDGSTYYADSVKGRFTISRDNAKNTVYLQMNSLKPEDTAVYYCNAQSYYYWHLRYDYWGQGTQVTVSS | high polyreactivity |
| QVQLVESGGGLVQAGGSLRLSCAASGSIFWANAMGWYRPAPGKERELVAAINFRATITYYPASVKGRFTISRDNAKNTVYLQMNSRKPEDTAVYYCAKAQAQRYSFYYWGQGTQVTVSS | high polyreactivity |
| QVQLVESGGGLVQAGGSLRLSCAASGSTFFRYTMGWYRQAPGKERELVAAISWSGGSTYYADSVKGRFTISRDNAKNTVYLQMNSLKPEDTAVYYCAAVYEWDAVKWVDVDMDYWGQGTQVTVSS | low polyreactivity |
| QVQLVESGGGLVQAGGSLRLSCAASGFIFDPYAMGWYRQAPGTERELVASINTRGDRTSYADSVKGRFTISRDNAKNTVYLQMNSLKPEDTAVYYCNADAVDQVGPDDDYWGQGTQVTVSS | low polyreactivity |
| QVQLVESGGGLVQAGGSLRLSCAASGFIFRYNAMGWYRQAPGKERELVARISSGGSTNYADSVKGRFTISRDNAKNTVYLQMNSLKPEDTAVYYCAVKQYWYIWSGYGYDYWGQGTQVTVSS | high polyreactivity |
| QVQLVESGGGLVQAGGILRLICADSGSTFAQYAMGWYRPAPGKERELVAAISRLGASTYYAYSVKGRFTISRDIAKNTVYLQMNSLKPEDTVVYYCNAVRGEKMGYWGQGTQVTVSS | high polyreactivity |
| QVQLVESGGGLVQAGGSLRLSCAASGRTFASNDMGWYRQAPGKERELVADINNGARTYYADSVKGRFTISRDNAKNTVYLQMNSLKPEDTAVYYCNARPWYWWEGRYDYWGQGTQVTVSS | high polyreactivity |
| QVQLVESGGGVVQAGGSLRLSCAASGSHFISNAMGWYRQAPGKERELVAAITSSGGSTYYADSVKGRFTISRDNAKNTVYLQMNSLKPEVTAVYYCAARPGRNYYYWGQGTQVTVSS | high polyreactivity |
| QVQLVESGGGLVQAGGSLRLSCAASGSIFPHYAMGWNRQAPGKERELVAAISSGGRTYYADSVKGRFTISRDNAKNTVYLQMNSLKPEDTAVYYCAARRIARKGYGYWGQGTQVTVSS | high polyreactivity |
| QVQLVEAGGGLVQAGGSLRLSCAASGRIFYYYAMGWYSQAPGKEREFVAAIRISGGSKNYADSVKGRFTISRDNAKNNVYLQMNSLKPEETAVYYSAARSKYSGIRRAYDYWGQGTQVTVSS | high polyreactivity |
| QVQLVESGGGLVQAGGSLRLICDASGFTFGVYAMGWYRQAPGKETELVAAISTTVGSTYYADSVKGRFTISRDNAKNNVYLQLNRLKPEDTALYYCAAEYTGYLNYYIYEYWGQGTQVTVSS | low polyreactivity |

| Sequence | polyreactivity (PSR sort gate) |
| --- | --- |
| QVQLVESAGGLVQAGGSLRLSCAASGSTFLSYFMGWYRQAPGKERELVAAITGTGGRTYYADSVKGRFTISRDNAKNTVYLQMNSLKPEDSAVYYCTAYRKHGYDYWGQGTQVTVSS | high polyreactivity |
| QVQLVESGGGLVQAGGSLRLSCAASGSIFYPYAMGWYRQAPGKERELVAAITSSTGSTYYADSVKGRFTISRDHAKNTVYLQMNSLKPEDTAVYYCAAAGYWSYFMMDYWGQGTQVTVSS | low polyreactivity |
| QVQLVDSGGGLVQAGGSLRLSCAASGRTFVSYAMGWYRQAPGKERELVAAISRSGGRTYYADSVKGRFTISRDNAMNSVYLQMNCLKPEDTAVYYCATKQYGTLARYDYWGQGSQVTVSS | high polyreactivity |
| QVQLVESGGGLVQAGGSLRLSCAASGLTFSKYAMGWYRQAPGKERELVAAINRSDGGTYYADSVKGRFTISRDNAKNTVYLQMNSLKPEDTAVYYCNAVVLYGWYGRRYSSRLDYWGQGTQVTVSS | high polyreactivity |
| QVQLVESGGGLVQAGGSLRLSSAASGRTFAVNAMGSYRQAPGKERELLAAISQRAGRTYYADSVKGRFTISRDNEKNTVYLQMNSLKPEDTAVYYCNVVGFRSRVGSRGYWGLGTQVTVSS | high polyreactivity |
| QVQLVESGGGLVQAGGSLRLSCAASGSTFVTNAMVWYRQAPGKERELVAAIDYDSGSTYYADSVKGRFTISRDNAKNTVYLQMNSLIPEDTAVYYCNADEQSEEEWEYYYSYDYWGQGTQVTVSS | high polyreactivity |
| QVQLVESGGGLVQAGGRLRLSCAASGSIFPFYAMGWYRQAPGKERELVAAISDRGGSTYYADSVKGRFTISRDNAKNTVYLQMISLKPEDTAVYYCAKGGEVSQGYTDEYDYWGQGTQVTVSS | low polyreactivity |
| QVQLVESGGGLVQAGGSLRLSCAASGLTFYSYAMGWSRQAPGKERELVAAITSSGSITYYADSVKGRFTISRDNAKNTVYLQMNSLKPEDTAVYYCAARPYRVRGQRFEGNYWGQGTQVTVSS | high polyreactivity |
| QVELQVSGGGLVRAGGSLRLSCAASGNIFDADIMGWYRQAPGKERELVASITGGGSTSYAESAKGRFTISRDNAKNAVYLQMNRLKPEDTAVYYCAAAAYYADFDYWGQGTQVTVSS | low polyreactivity |
| QVQLVESGGGLVQAGGSLRLSCAASGSTFYYYTMGWYRQAPGKERELVAAITYSGGSTRYADSVKGRFTISRDNAKNTVYLQMNSLKPEDTAVYYCAAGYYWSSFAFRDMDYWGQGTQVTVSS | high polyreactivity |
| QVQLVESGGGLVQEGGSLRLSCAASGSILYYYAMGWYRQAPGKERELVATITRRGGSTYYADSVKGRFTISRDNAKNTVYLQMNSLKPEDTAVYFCAARSRYGELYYWGQGTQVTVSS | high polyreactivity |
| QVQLVESGGGLVQAGGSLRLSCAASGRTIIYYGMGWYRQAPGKERELVAAISLRGSSTRYADSVKGRFTISRDNAKNTVYLQMNSLKPEDTAVYYCAARPRLSRYDYWGQGTQVTVSS | high polyreactivity |
| QVQLLESGGGLVQAGGSLRLSCMASGSILGDRMSWYRQAPGKEHELVATIYDGGITYYADSMKGRFTISRDNAKNTVYLQMNSLRPEDTAVYYCGASFEGYGYHVYCGQGTQVTVSS | low polyreactivity |
| QVQLVESWGGLVQAGCSLRLSCAASGRTFRSYAMGWYRQATGKERELVAAISRNGGRTYYADSVKGRFTMSRDNAKYTVYSQMNSLKPEDTAVYYCAAVGDFDVYYWGQATQVTVSS | high polyreactivity |
| QVQLVESGGGLVQAGGSLRLSCAASGFTFSRNTMGWYRQAPGKERELVARISASGGSTYYADSVKGRFTISRDNAKNTVYLQMNSLKPEDTAVYYCAAVYRRYGGSRYDYWGQGTQVTVSS | high polyreactivity |
